Here are results for seven molecules from publication PMC4346919, “Structural Analysis of the Complex between Penta-EF-Hand ALG-2 Protein and Sec31A Peptide Reveals a Novel Target Recognition Mechanism of ALG-2” (International Journal of Molecular Sciences, 2015).

Where only a bound is given, the exact number is not on record here.

The chains are these.
B7: biotin-labeled ALG-2 (natural protein, human, UniProt O75340 1-191, looked up)
chain: MAAYSYRPGPGAGPGPAAGAALPDQSFLWNVFQRVDKDRSGVISDTELQQALSNGTWTPFNPVTVRSIISMFDRENKAGVNFSEFTGVWKYITDWQNVFRTYDRDNSGMIDKNELKQALSGFGYRLSDQFHDILIRKFDRQGRGQIAFDDFIQGCIVLQRLTDIFRRYDTDQDGWIQVSYEQYLSMVFSIV
modifications: biotin-labeled
notes: ALG-2 (PDCD6), probe of the far-Western blots; also called bio-ALG-2

Common to all, as to test: far-Western, overlay or dot blot; purified GST-fused peptides resolved by SDS-PAGE, transferred to PVDF membranes and probed with biotin-labeled ALG-2; chemiluminescence, quantified with ImageJ
Holding throughout (details): both partners purified

The target of the assay “biotin-labeled ALG-2” is B7.
Assay [1] concerns the target T1, GST-8 aa-fusion of PLSCR3 (43–50) (UniProt Q9NRY6 43-50).
T1 construct: PLSCR3 residues 43-50; also called PLSCR3 8 aa, encoding 43–50
T1 chain (looked up): PAPAPGFA

The target of assay [2] is T2, GST-fused Sec31A 8-residue peptide P4S (human, P4S).
T2 construct: Sec31A residues 837-844; numbers count on: the 8-residue peptide (N1 = residue 837 of Sec31A)
T2 chain: NPPSPGFI

B1: GST-fused Sec31A peptide, 13 aa (839–851) (peptide, UniProt O94979 839-851, looked up)
chain: PPPGFIMHGNVNP
notes: also called Sec31A 13 aa, encoding 839–851
As to B1, the binding result in the assay with biotin-labeled ALG-2 is listed as “binds”.

B2: GST-fused Sec31A 8-residue peptide P4A (peptide)
chain: NPPAPGFI
notes: Sec31A residues 837-844; numbers count on: the 8-residue peptide (N1 = residue 837 of Sec31A)
As for B2, the binding result in the assay with biotin-labeled ALG-2 is “binds”.

B3: GST-fused Sec31A peptide, 13 aa (837–849) (peptide, UniProt O94979 837-849, looked up)
chain: NPPPPGFIMHGNV
notes: Sec31A residues 837-849; also called Sec31A 13 aa, encoding 837–849
B3: the binding result in the assay with biotin-labeled ALG-2 was “binds”.

B4: GST-fused Sec31A 8-residue peptide P2A (peptide)
chain: NAPPPGFI
notes: as for B2
Consider B4, for which the binding result with biotin-labeled ALG-2 is “binds”.

B5: GST-fused Sec31A 8-residue peptide P5A (peptide)
chain: NPPPAGFI
notes: as for B2
In the case of B5, in the assay with biotin-labeled ALG-2, the binding result was “binds”.

B6: GST-fused Sec31A 8-residue peptide P5L (peptide)
chain: NPPPLGFI
notes: as for B2
On to B6, for which the binding result in the assay with biotin-labeled ALG-2 is “binds”.

On to B7, for which, in assay [1], the “FW signal relative to that for Sec31A” value is < 0.0625 of the signal for Sec31A. Besides, in assay [2], the “relative binding activity (percent of WT)” value was ~20 % of WT.
